The nanobody polyreactivity screen of Harvey et al. (2022)

Assay: yeast display, Sf9 membrane polyspecificity reagent, FACS + sequencing; frameworks hold sequencing errors
In short: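 Synthetic nanobody libraries on Saccharomyces cerevisiae BJ5465 were galactose-induced for 36–48 hours, stained 1 hour at 4 °C with 10% biotinylated, detergent-solubilized Sf9 membrane reagent and enriched on streptavidin microbeads. FACS then separated cells into low and high (top ~1%) gates by anti-HA (expression) and streptavidin (reagent binding) fluorescence. Genes were colony-PCR amplified, MiSeq 2 × 250 sequenced and CDR-length filtered. A clone's polyreactivity label is that of its gate of origin.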

Sequence	polyreactivity (PSR sort gate)
QVQLVESGGGLVQAGGSLRLSCAASGITFGVYTMGWYRQAPGKEREFVAVISGRGGSTYYADSVKGRFTISRDNAKNTVYLQMNSLKPEDTAVYYCAADYYYIVDYWGQGTQVTVSS	high polyreactivity
QVQLVESGGGLVQAGGSLRLSCAASGITFGWYAMGWYRQAPGKERELVAAISWSGGTTYYADSVKGRFTISRDNAKNTVYLQMNSLKPEDTAVYYCAATWYYPTVYAGNYWGQGTQVTVSS	high polyreactivity
QVQLVESGGGLVQAGGSLRLSCAASGITFGYYAMGWSRQAPGKERELVAAIRSSGGSTYYADSVKGRFTISRDNAKNNVYLQMNSLKPEDTAVYYCNARYRKSSRPGYEPYERYYWGQGTQVTVSS	high polyreactivity
QVQLVESGGGLVQAGGSLRLSCAASGITFGYYARGGYRQAPGNERELVAAISRNGGSTYYADSVKGRFTISRDNAKNTVYLQMNSLKPEDTAVYYCNARGNQAVIGYEYWGQGTQVTVSS	high polyreactivity
QVQLVESGGGLVQAGGSLRLSCAASGITFHDNAMGWYRQAPGKERELVAVITRRGGRTYYADSVKGRFTISRDNAKNTVYLQMNSLKPEDTAVYYCAAYYDYTHRFYYWGQGTQVTVSS	high polyreactivity
QVQLVESGGGLVQAGGSLRLSCAASGITFHGYAMGWYRQAPGKERELVAAISDSGSSTYYADSVKGRFTISRDNAKNTVYLQMNSLKPEDTAVYYCAAVSGFYDQYDYWGQGTQVTVSS	low polyreactivity
QVQLVESGGGLVQAGGSLRLSCAASGITFHRNTMGWYRQAPGTETELVDSITSGGITYYADSVKGSFTISRDNEKNTVYLQMNSLKPEDTAVYYCAAEGYWTYWVARSDIPYFYWGQGSQVTVSS	high polyreactivity
QVQLVESGGGLVQAGGSLRLSCAASGITFHVNAMGWYRQAPGKERELVARITTSGGSTSYADSVKGRFTISRDNAKNTVYLQMNSLKPEDTAVYYCAADLARYYSEYDYWGQGTQVTVSS	low polyreactivity
QVQLVESGGGLVQAGGSLRLSCAASGITFIAYTMGWYRQAPGKERELVAGISRNGGRTYYADSVKGRFTISRDNAKNTVYLQMNSLKPEDTAVYYCNKVVSTYSSIKYDYWGQGTQVTVSS	high polyreactivity
QVQLVESGGGLVQAGGSLRLSCAASGITFISYVKGWYRQAPGKEREVVAAISKRGGSTYYADSVKGRFTISRDNAKNTVYFKINSLKAEDTAVYYCAAKTIPWSVGYDYWGQGTQVTVSS	high polyreactivity
QVQLVESGGGLVQAGGSLRLSCAASGITFIVNAMGWYRQAPGKERELVARITTSGGSTSYADSVKGRFTISRDNAKYTVYLQMYSLKPEDSAVYYCAADRGGYYSEYDYWGQGTQVTVSS	low polyreactivity
QVQLVESGGGLVQAGGSLRLSCAASGITFIYYAMGWYRQAPGKERELVAAISTGGSTYYADSVKGRCTISRDNAKNTVYLQRKSLKPEDTAVYFWNALRKSLRGGDYWGQGTQVTVSS	high polyreactivity
QVQLVESGGGLVQAGGSLRLSCAASGITFKAYAMGWYRQAPGKERELVAAINTSGARTYYADSVKGRFTISRDNAKNTVYLQMNSLKTEDTAVYYCNARLHQQEGDDWGQGTQVTVSS	low polyreactivity
QVQLVESGGGLVQAGGSLRLSCAASGITFKRYAMGWYRQAPGKERELVAAITISAGSTYYADSVKGRFTISRDNAKNNVYLQMNSLKPEDTAVYYCAAESYGSWYYYWGQGTQVTVSS	high polyreactivity
QVQLVESGGGLVQAGGSLRLSCAASGITFKRYTMGWYRQAPGKERELVADITWSGGSTYADSVKGRFTISRDNAKNTVYLQMNSLKPEDTAVYYCAAEWQTWYGVEYDYWGQGTQVTVSS	high polyreactivity
QVQLVESGGGLVQAGGSLRLSCAASGITFKSNAMGWYRQAPGKERELVAAISRRASSTYYADSVKGRFTISRDNAKNTVYLQMNSLKPEDTAVYYCNAVLPVYRTNMDYWGQGTQVTVST	high polyreactivity
QVQLVESGGGLVQAGGSLRLSCAASGITFKSYAMGWYRKAPGKERELVAAITRSGGSTYYADSVKGRLTISRDNAKNTVYLQMNSLKPEDTAVYYCAARYFIAYPQYTYDYWGQGTQVTVSS	high polyreactivity
QVQLVESGGGLVQAGGSLRLSCAASGITFKTYAMGWYRQAPGKERELVATINRGSRTNYADSVKGRFTISRDNAKNTVYLQMNSLKPEDTAVYYCAAEYVTYISSEMDYWGQGTQVTVSS	low polyreactivity
QVQLVESGGGLVQAGGSLRLSCAASGITFKTYTMGWYRQAPGKERELVAAITRSGAGTYYADSVKGRFTISRDNAKNTVDLQMNSLKPEDTAVYYCAARVRWGYRYGYWGQGTQVTVSS	high polyreactivity
QVQLVESGGGLVQAGGSLRLSCAASGITFKVYAMGWYRQAPRKEREFVAAITYSGGRTYYADSVKGRFTISRDNAKNTVYLQMNSLQPEDTAVYYCAKEYGIYTDTPYYYWGQGTQVTVSS	low polyreactivity
QVQLVESGGGLVQAGGSLRLSCAASGITFKWYAMGWYRQAPGKERELVAAISWSTGSTYYADSVKGRFTISRDNAKNTVYLQMNSLKPEDTSVYYCAARVKRPQTGYDRRYGYWGQGTQVTVSS	high polyreactivity
QVQLVESGGGLVQAGGSLRLSCAASGITFKYYAMGWYRQAPGKERELVAAINWSGDRTYYADSVKGRFTISRDNAKNTVYLQMNSLKPEDTAVYYCAATAWPGRYWRQEVDYWGQGTQVTVSS	high polyreactivity

Sequence	polyreactivity (PSR sort gate)
QVQLVESGGGLVQAGGSLRLSCAASGITFLDYAMGWYRQAPGKERELVADISTSGGSTYYADSVKGRFTISRDNAKNTVYLQMNSLKPEDTAVYYCAADTFDFWWSLGSMDYWGQGTQVTVSS	high polyreactivity
QVQLVESGGGLVQAGGSLRLSCAASGITFLFYAMGWYIPAPGKEREYVAAISTRGGRTYYADSVKGRFTISRDNAKNTVYLQMNSLKPEDTAVYYCAADFYYRTVATVTSVARYDYWGQGTQVTVSS	high polyreactivity
QVQLVESGGGLVQAGGSLRLSCAASGITFLFYARGWYRKAPGKERELVAAISSGDNTYYADSVKGRFTISRDNGKNTVYLQMKSLKPDDTAVYYCAAEKYGYDYWGQGTQVTVSS	low polyreactivity
QVQLVESGGGLVQAGGSLRLSCAASGITFLGYVMGWYRQAPGKEREFVADITESGGRTYYADSVKGRFTISRDNAKNTVYLQMNSLKPEDTAVYYCAAELSYWGYYYSFDYWGQGTQVTVSS	low polyreactivity
QVQLVESGGGLVQAGGSLRLSCAASGITFLHYALGWYRQAPGKERELDAAISVRGGITYYADSVKGRFTISRDNAKNTVYLQMHSLKPEDTAVFYCAADRPKFYNSIYDYWGQGTQVTVSS	low polyreactivity
QVQLVESGGGLVQAGGSLRLSCAASGITFLKNAMGWYRQAPGKERELVAAISSSGGSTYYADSVKGRFTISRDNAKNTVYLQMNSLKPEDTAVYFCAARIYWYTPGRRGYTYDYWGQGTQVTVSS	high polyreactivity
QVQLVESGGGLVQAGGSLRLSCAASGITFLNYAMGWYRQAPGKERELVAAISWSGGRTYYADSVKGRFTISRDKGKNTVYLQMNSLKPEDTAVYYCAADRGVNSYGYWGQGTQVTVSS	high polyreactivity
QVQLVESGGGLVQAGGSLRLSCAASGITFLPYAMGWYRPAPGKERELVAAITRGGGSTYADSVKGRFTISRDNAKNTVYLQMNSLKPEDTAVYYCAKRYGRVSWYEDYDYWGQGTQVTVSS	low polyreactivity
QVQLVESGGGLVQAGGSLRLSCAASGITFLPYTMGWYRQAPGKERELVATISWNGGSTYYADSVKGRFTISRDNAKNTVYLQMNSLKPEDTAVYYCAARQVQAPRSIGFYYWGQGTQVTVSS	high polyreactivity
QVQLVESGGGLVQAGGSLRLSCAASGITFLYYAMGRYRPAPGKERELVAAITGDGSTTYADSVKGRFTISRDNAKNTVYLQMNSLKPEDTAGYYCAADDQYYGDGFWGQGTQLTVSS	high polyreactivity
QVQLVESGGGLVQAGGSLRLSCAASGITFNAYAMGWYRQAPGKERELVAAITSSGSSTYYADSVKGRFTISRDYAKNTVYLQMNSLKPDDTAVYYCAATRGTKFYWGQGTQVTVSS	high polyreactivity
QVQLVESGGGLVQAGGSLRLSCAASGITFNGYAMGWYRQAPGKERELVAAISSSGGRTRYADSVKGRFTISRDNAKNTVYLQMNSLKPEDTAVYYCNARGYGQSNYWGQGTQVTVSS	high polyreactivity
QVQLVESGGGLVQAGGSLRLSCAASGITFNKYAMGWYRQAPGKERELVAAISSRGGSTYYADSVKGRFTISRDNAKNTVYLQMNSLKPEDTAVYYCNADFYRASSNFDYWGQGTQVSVSS	high polyreactivity
QVQLVESGGGLVQAGGSLRLSCAASGITFNKYAMGWYRQAPGKERELVAAISSRGGSTYYADSVKGRFTISRDNAKNTVYLQMNSLKPEDTAVYYCNADVYRASNFDYWGQGTQVTVSS	high polyreactivity
QVQLVESGGGLVQAGGSLRLSCAASGITFNLNDMGWYRQAPGKERELVAAITSGGNTSYADSVKGRFTISRDNAKNTVDLQMNSLKPEDTAVYYCATEDFRTDTGMYYWGQGTQVTVSS	low polyreactivity
QVQLVESGGGLVQAGGSLRLSCAASGITFNLYAMGWYRQAPGKERELVAGITGGGSTYYADSVKGRFTISRDNAKNTVYLQMNSLTPEDTAVYYSTARRLGARYRGYYWGQGTQVTVSS	high polyreactivity
QVQLVESGGGLVQAGGSLRLSCAASGITFNRYALGWYRQAPGKERELVASIRWSGGSTNYADSVKGRFTISRDNGKNTVYLQMKSLKPEDTAVYYCNAGRESDDVYEGSQRIGQFDYWGQGTQVTVSS	low polyreactivity
QVQLVESGGGLVQAGGSLRLSCAASGITFNRYAMGWYRQAPGKERELVAGISRGVSTYYADSVKGRFTISRDNAKNTVYLQMKSLKPEDTAVYYCAAKPVVRYVSFGYDYWGQGTQVTVSS	high polyreactivity
QVQLVESGGGLVQAGGSLRLSCAASGITFNSNAMGWYRQAPGKERELVATISNGGSTNYADSVKGRFTISRDNAKNTVYLQMNSLKPEDTAVYDCNTRRGSLSGLYVYSIQGYDYWGQGTQVTVSS	low polyreactivity
QVQLVESGGGLVQAGGSLRLSCAASGITFNSYVMGWYRQAPGKERELVAAIRWSGGRTYYADSVKGRFTISRDNAKNTVYLQMNSLKPEDTAVYYCNRVTRSHVDYWGQGTQVTVSS	high polyreactivity
QVQLVESGGGLVQAGGSLRLSCAASGITFNTDTMGWYRQAPGKEWELVAAITLSGAGTYYADSVKGRFTISRDNAKNTVYLQMNSLKPEDTAVYYCAAYLSENRWPYVRYDYWGQGTQVTVSS	high polyreactivity
